The values below are quoted from earlier work in publication PMC4896244.

The target of this data set is Connexin 43 CT (UniProt P23242).
UniProt P23242, sequence (P23242 255-382): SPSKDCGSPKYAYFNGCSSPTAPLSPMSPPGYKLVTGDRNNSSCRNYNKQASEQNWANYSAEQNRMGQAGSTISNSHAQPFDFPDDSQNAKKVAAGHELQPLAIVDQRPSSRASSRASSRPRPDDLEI

Regarding CIP75 UBA (from UniProt Q99NB8), the dissociation constant Kd is 300 µM.

For orientation: Kd means the equilibrium constant for the complex coming apart.
